What was measured:
[1] = tested on: MK2 41-364 (unphosphorylated, constitutively active)
[2] = tested on: MK2 41-400 (unphosphorylated)
MK2 41-400 (unphosphorylated), sequence (chain, as listed by the source): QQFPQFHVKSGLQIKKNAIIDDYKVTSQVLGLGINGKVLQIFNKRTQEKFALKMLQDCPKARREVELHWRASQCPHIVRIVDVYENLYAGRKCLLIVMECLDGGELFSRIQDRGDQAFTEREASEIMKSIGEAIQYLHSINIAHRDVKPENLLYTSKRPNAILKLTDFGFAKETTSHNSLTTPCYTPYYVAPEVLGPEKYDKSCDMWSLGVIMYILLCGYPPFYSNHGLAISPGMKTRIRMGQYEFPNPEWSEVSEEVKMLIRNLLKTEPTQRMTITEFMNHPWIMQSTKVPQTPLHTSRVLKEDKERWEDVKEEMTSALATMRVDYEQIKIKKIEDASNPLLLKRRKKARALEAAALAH

## Activated p38 MAP kinase
[1]
  Vmax of the MK2 construct after activation by p38 (0.076 without p38): 11 µmol/min/mg
[2]
  Vmax of the MK2 construct after activation by p38 (no activity without p38): 8.9 µmol/min/mg
